In publication PMC4671291 (The Biochemical journal, 2011):

Biological target: the molecule itself
Assay: SEC

B1: Saccharomyces cerevisiae dUTP pyrophosphatase DUT1 (enzyme, S. cerevisiae)
chain: MTATSDKVLKIQLRSASATVPTKGSATAAGYDIYASQDITIPAMGQGMVSTDISFTVPVGTYGRIAPRSGLAVKNGIQTGAGVVDRDYTGEVKVVLFNHSQRDFAIKKGDRVAQLILEKIVDDAQIVVVDSLEESARGAGGFGSTGN
- stoichiometry N: 3
